Residue numbers refer to the chain shown, from its start. Names may count otherwise.
B1: LetB L243N, TM helix deleted (domain or fragment, E. coli, UniProt P76272 43-877, looked up)
chain: QDRGNTVTIDFMSADGIVPGRTPVRYQGVEVGTVQDISLSDDLRKIEVKVSIKSDMKDALREETQFWLVTPKASLAGVSGLDALVGGNYIGMMPGKGKEQDHFVALDTQPKYRLDNGDLMIHLQAPDLGSLNSGSLVYFRKIPVGKVYDYAINPNKQGVVIDVLIERRFTDLVKKGSRFWNVSGVDANVSISGAKVKLESNAALVNGAIAFDSPEESKPAEAEDTFGLYEDLAHSQRGVIIKLELPSGAGLTADSTPLMYQGLEVGQLTKLDLNPGGKVTGEMTVDPSVVTLLRENTRIELRNPKLSLSDANLSALLTGKTFELVPGDGEPRKEFVVVPGEKALLHEPDVLTLTLTAPESYGIDAGQPLILHGVQVGQVIDRKLTSKGVTFTVAIEPQHRELVKGDSKFVVNSRVDVKVGLDGVEFLGASASEWINGGIRILPGDKGEMKASYPLYANLEKALENSLSDLPTTTVSLSAETLPDVQAGSVVLYRKFEVGEVITVRPRANAFDIDLHIKPEYRNLLTSNSVFWAEGGAKVQLNGSGLTVQASPLSRALKGAISFDNLSGASASQRKGDKRILYASETAARAVGGQITLHAFDAGKLAVGMPIRYLGIDIGQIQTLDLITARNEVQAKAVLYPEYVQTFARGGTRFSVVTPQISAAGVEHLDTILQPYINVEPGRGNPRRDFELQEATITDSRYLDGLSIIVEAPEAGSLGIGTPVLFRGLEVGTVTGMTLGTLSDRVMIAMRISKRYQHLVRNNSVFWLASGYSLDFGLTGGVVKTGTFNQFIRGGIAFATPPGTPLAPKAQEGKHFLLQESEPKEWREWGTALPK
B2: LetB V247N, TM helix deleted (domain or fragment, E. coli, UniProt P76272 43-877, looked up)
chain: B1 chain with N201L, V205N
B3: LetB L246N, TM helix deleted (domain or fragment, E. coli, UniProt P76272 43-877, looked up)
chain: B1 chain with N201L, L204N
B4: LetB L355N, TM helix deleted (domain or fragment, E. coli, UniProt P76272 43-877, looked up)
chain: B1 chain with N201L, L313N
B5: LetB L359N, TM helix deleted (domain or fragment, E. coli, UniProt P76272 43-877, looked up)
chain: B1 chain with N201L, L317N
B6: LetB L358N, TM helix deleted (domain or fragment, E. coli, UniProt P76272 43-877, looked up)
chain: B1 chain with N201L, L316N
B7: LetB four-ring mutant 1–3-4–7, TM helix deleted (domain or fragment)
chain: QDRGNTVTIDFMSADGIVPGRTPVRYQGVEVGTVQDISLSDDLRKIEVKVSIKSDMKDALREETQFWLVTPKASLAGVSGLDALVGGNYIGMMPGKGKEQDHFVALDTQPKYRLDNGRGVIIKLELPSGAGLTADSTPLMYQGLEVGQLTKLDLNPGGKVTGEMTVDPSVVTLLRENTRIELRNPKLSLSDANLSALLTGKTFELVPGDGEPRKEFVVVPGEKALLHEPDVLTLTLTAPESYGIDAGQPLILHGVQVGQVIDRKLTSKGVTFTVAIEPQHRELVKGDSKFVVNSRVDVKVGLDGVEFLGASASEWINGGIRILPGDKGEMKASYPLYANLEKALENSLSDLPTDGLSIIVEAPEAGSLGIGTPVLFRGLEVGTVTGMTLGTLSDRVMIAMRISKRYQHLVRNNSVFWLASGYSLDFGLTGGVVKTGTFNQFIRGGIAFATPPGTPLAPKAQEGKHFLLQESEPKEWREWGTALPK
B8: LetB two-ring truncation mutant, TM helix deleted (domain or fragment)
chain: QDRGNTVTIDFMSADGIVPGRTPVRYQGVEVGTVQDISLSDDLRKIEVKVSIKSDMKDALREETQFWLVTPKASLAGVSGLDALVGGNYIGMMPGKGKEQDHFVALDTQPKYRLDNGDGLSIIVEAPEAGSLGIGTPVLFRGLEVGTVTGMTLGTLSDRVMIAMRISKRYQHLVRNNSVFWLASGYSLDFGLTGGVVKTGTFNQFIRGGIAFATPPGTPLAPKAQEGKHFLLQESEPKEWREWGTALPK
B9: LetB three-ring truncation mutant (rings 2, 3, 4 and 5 removed), TM helix deleted (domain or fragment)
chain: QDRGNTVTIDFMSADGIVPGRTPVRYQGVEVGTVQDISLSDDLRKIEVKVSIKSDMKDALREETQFWLVTPKASLAGVSGLDALVGGNYIGMMPGKGKEQDHFVALDTQPKYRLDNGGGQITLHAFDAGKLAVGMPIRYLGIDIGQIQTLDLITARNEVQAKAVLYPEYVQTFARGGTRFSVVTPQISAAGVEHLDTILQPYINVEPGRGNPRRDFELQEATITDSRYLDGLSIIVEAPEAGSLGIGTPVLFRGLEVGTVTGMTLGTLSDRVMIAMRISKRYQHLVRNNSVFWLASGYSLDFGLTGGVVKTGTFNQFIRGGIAFATPPGTPLAPKAQEGKHFLLQESEPKEWREWGTALPK

Tests used:
Test in all cases: negative stain EM
[1] = target: LetB ΔPLL3 mutant, TM helix deleted (E. coli) (UniProt P76272)
[2] = target: LetB six-ring truncation mutant (ring 6 removed), TM helix deleted (E. coli) (UniProt P76272)
[3] = target: LetB ΔPLL2 mutant, TM helix deleted (E. coli) (UniProt P76272)
[4] = target: MCE protein with six MCE domains from Pseudomonas aeruginosa (Pseudomonas aeruginosa)
negative stain EM = target: the molecule itself

Molecule | stoichiometry N (negative stain EM) | other results
LetB ΔPLL3 mutant, TM helix deleted (from UniProt P76272 43-877) (domain or fragment) |  | stoichiometry N [1]: 6
LetB six-ring truncation mutant (ring 6 removed), TM helix deleted (from UniProt P76272 43-877) (domain or fragment) |  | stoichiometry N [2]: 6
LetB ΔPLL2 mutant, TM helix deleted (from UniProt P76272 43-877) (domain or fragment) |  | stoichiometry N [3]: 6
MCE protein with six MCE domains from Pseudomonas aeruginosa (natural protein) |  | stoichiometry N [4]: 6
B1 | 6 | 
B2 | 6 | 
B3 | 6 | 
B4 | 6 | 
B5 | 6 | 
B6 | 6 | 
B7 | 6 | 
B8 | 6 | 
B9 | 6 | 
